From patent US20240002795A1 (published 2024)

B1: TCR-ID-1 (TCR, V domains shown)
Valpha: GNSVTQMEGPVTLSEEAFLTINCTYTATGYPSLFWYVQYPGEGLQLLLKATKADDKGSNKGFEATYRKETTSFHLEKGSVQVSDSAVYFCALSENAGNQFYFGTGTSLTVIP
Vbeta: NAGVTQTPKFQVLKTGQSMTLQCAQDMNHEYMSWYRQDPGMGLRLIHYSVGAGITDQGEVPNGYNVSRSTTEDFPLRLLSAAPSQTSVYFCASSRGNTQYFGPGTRLTVL
B2: TCR-ID-2 (TCR, V domains shown)
Valpha: AQKITQTQPGMFVQEKEAVTLDCTYDTSDQSYGLFWYKQPSSGEMIFLIYQGSYDEQNATEGRYSLNFQKARKSANLVISASQLGDSAMYFCAMREGDGDDMRFGAGTRLTVKP
Vbeta: EPEVTQTPSHQVTQMGQEVILRCVPISNHLYFYWYRQILGQKVEFLVSFYNNEISEKSEIFDDQFSVERPDGSNFTLKIRSTKLEDSAMYFCASSSQIQTVMNTEAFFGQGTRLTVV
B3: TCR-ID-3 (TCR, V domains shown)
Valpha: DQQVKQNSPSLSVQEGRISILNCDYTNSMFDYFLWYKKYPAEGPTFLISISSIKDKNEDGRFTVFLNKSAKHLSLHIVPSQPGDSAVYFCAASGHGGSQGNLIFGKGTKLSVKP
Vbeta: GAGVSQSPRYKVAKRGQDVALRCDPISGHVSLFWYQQALGQGPEFLTYFQNEAQLDKSGLPSDRFFAERPEGSVSTLKIQRTQQEDSAVYLCASSLRFLGQGSYEQYFGPGTRLTVT

Assays:
Experiment in all cases: activation reporter or marker
[1] = target: T1, RET wild type peptide on HLA-DPA1*01:03 / HLA-DPB1*04:02 (human)
T1 peptide: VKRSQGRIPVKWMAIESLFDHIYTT

[2] = target: T2, RET M918T peptide on HLA-DPA1*01:03 / HLA-DPB1*04:02 (human)
T2 peptide: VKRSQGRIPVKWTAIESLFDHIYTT

[3] = target: T3, RET M918T peptide on HLA-DPA1*01:03 / HLA-DPB1*04:01 (human)
T3 peptide: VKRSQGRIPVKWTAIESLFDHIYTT

[4] = target: T4, RET wild type peptide on HLA-DPA1*01:03 / HLA-DPB1*04:01 (human)
T4 peptide: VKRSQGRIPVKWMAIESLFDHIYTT

| Binder | binding result [1] | binding result [2] | binding result [3] | binding result [4] |
| --- | --- | --- | --- | --- |
| B1 | no recognition | recognises | recognises | no recognition |
| B2 | no recognition | recognises | recognises | no recognition |
| B3 |  | recognises | recognises | no recognition |
